Measurements as given in the supplement of paper PMC12667976.

B1: library; numbered along this chain (parent)
chain: MATDAALRRLLRLHRTEIAVAVDSAFPLLHALADHDVVPEDKFQETLHLKEKEGCPQAFHALLSWLLTQDSTAILDFWRVLFKDYNLERYGRLQPILDSFPKDVDLSQPRKGRKPPAVPKALVPPPRLPTKRKASEEARAAAPAALTPRGTASPGSQLKAKPPKKPESSAEQQRLPLGNGIQTMSASVQRAVAMSSGDVPGARGAVEGILIQQVFESGGSKKCIQVGGEFYTPSKFEDSGSGKNKARSSSGPKPLVRAKGAQGAAPGGGEARLGQQGSVPAPLALPSDPQLHQKNEDECAVCRDGGELICCDGCPRAFHLACLSPPLREIPSGTWRCSSCLQATVQEVQPRAEEPRPQEPPVETPLPPGLRSAGEEVRGPPGEPLAGMDTTLVYKHLPAPPSAAPLPGLDSSALHPLLCVGPEGQQNLAPGARCGVCGDGTDVLRCTHCAAAFHWRCHFPAGTSRPGTGLRCRSCSGDVTPAPVEGVLAPSPARLAPGPAKDDTASHEPALHRDDLESLLSEHTFDGILQWAIQSMARPAAPFPS

Variants of: B1
Experiment: AIRE transcriptional activation functional score (insulin promoter-GFP; nonsense median 0, synonymous median 1) (normalised score); higher = higher AIRE activity (more reporter activation)
Conditions: with insulin promoter-GFP reporter in HEK293
Description: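 Deep mutational scan of full-length human AIRE (codon-optimized cDNA, DT-POPCode NNN libraries over three regions) integrated at a Bxb1 landing pad in HEK293 cells carrying an insulin core promoter-GFP reporter at a Flp-In site. Cells were sorted for the top 10% GFP about 14 days after transfection. Variant frequency log-ratios (select vs non-select, TileSeq) were rescaled so that the nonsense median is 0 and the synonymous median is 1, then averaged over biological replicates.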

AIRE transcriptional activation functional score: each site, then its substitutions
Q189: M -0.352, K 0.969, G 0.415, A 1.25, N 0.838, D 0.724, Y 0.0452, C 0.0413, T 0.669, P 0.54, E 1.01, W -1.03, I 0.169, V -0.071, H 0.892, L 0.207, F -0.181, S 1.21, R 0.813
M194: V 1.31, L 0.99, Q 0.907, P 0.602, G 0.75, Y 0.702, N 0.73, K 0.544, T 0.367, A 0.708, E 0.601, I 1.08, H 0.96, F 0.394, R 0.732, D -0.299, C 0.639, W 0.214, S 0.554
A186: T 0.873, W 0.156, M 0.198, H 0.849, K 0.646, V -0.207, R 0.648, Y -0.165, L 0.0294, I -0.146, S 0.95, Q 0.6, P 0.846, N 0.421, G 0.548
V188: E 0.556, A 0.635, D 0.779, P 0.629, L 1.24, I 1.01, M 1.32, W 0.518, H 0.687, Q 0.798, S 0.447, N 0.669, T 0.434, R 0.52, G 0.504, Y 1.56, K 0.779, C 0.891, F 0.939
R190: M 0.19, I 0.118, N 1.15, A 0.878, T 0.755, G 0.592, L 0.356, F -0.277, Y 0.797, K 0.53, V 0.094, S 0.821, Q 1.24, C 0.414, E 0.705, W 0.069, D 0.292, H 0.858, P 0.955
V192: N 0.244, Q 0.811, W 0.522, K 1.14, T 0.917, L 1.02, P 0.706, E 0.516, C 0.889, M 1.08, D 0.613, S 0.697, G 0.777, R 0.721, F 0.922, Y 1.19, I 1.13, H 0.776, A 0.598
S187: L 0.063, F -0.0306, G 0.706, R 1.18, E 0.48, K 0.853, Y 0.152, H 1.28, N 0.716, V 0.398, D 0.711, P 0.621, C 0.918, T 1.17, I 0.599, W 0.0947, A 0.982, Q 0.823, M 0.503
A191: Y -0.337, R 1.2, E 0.164, D 0.948, K 0.485, N 0.144, C 1.08, G 0.958, Q 0.489, I -0.149, T 1.27, W 0.116, H 1.25, P 0.647, V 0.157, L 0.166, F -0.339, S 1.03, M 0.662
A193: L 0.279, K 0.858, D 1.03, Q 1.88, F 0.268, E 0.394, M 0.563, S 0.899, W -1.35, R 0.93, V 0.147, C 1.39, N 1.14, H 1.81, I 0.281, G 0.791, Y 1.05, P 0.42, T 1.15
